Two substances from patent US20240299510A1 can be followed below.

One assay addresses HIT01-Combo3. As to the kind of experiment: BLI (Octet); antibody IgG 50 ug/ml on AHC sensor, immunogen from 500 nM in 2x dilutions.
Assay [1] deals with HIT01-K21Q-R218E. Described as above.
In assay [2] the target is HIT01-K21Q-R218E. Briefly: BLI (Octet) blocking; HIT01-K21Q-R218E on Ni-NTA sensor, 50 ug/ml AMG145 for 300 s, then NHP serum (competitor) at 200-fold dilution.
The target in the next assay is human PCSK9 (human) (UniProt Q8NBP7). As to the kind of experiment: BLI (Octet) blocking; wt PCSK9 on Ni-NTA sensor, 50 ug/ml AMG145 for 300 s, then NHP serum (competitor) at 200-fold dilution.

For Alirocumab (antibody), the Kd (usually the concentration at which binding is half-saturated) in the assay with HIT01-Combo3 came out at 112 nM; with HIT01-K21Q-R218E [1] it was 58 nM.

For the substance AMG145 (antibody), the Kd is 0.005 nM with HIT01-Combo3 and < 0.001 nM in the assay with HIT01-K21Q-R218E [1]. For the same substance, the reduction of serum response when the probe is blocked with HIT01-K21Q-R218E [2] and with human PCSK9 (human) was 50% throughout.
